In PMC9992711, “Two-step structural changes in M3 muscarinic receptor activation rely on the coupled Gq protein cycle” (Nature Communications, 2023):
Blank lines part the entries; values can stand above or below the molecule they belong to.

Tests used:
[1] = target: hM3R-Cerulean (human) (UniProt P20309); test: FRET or BRET; CFP/YFP photometry on single live HEK293T (tsA-201) cells; labelled pair with the remaining cognate G protein subunits co-transfected (GRK2 too for Gαq-CFP with Gβ1-YFP; only the two probes for hM3R-CFP with YFP-PLCβ1); 10 μM Oxo-M applied and washed out
[2] = target: hM3R-Cerulean (human) (UniProt P20309); test: FRET or BRET; CFP/YFP photometry on single live HEK293T (tsA-201) cells; labelled pair co-transfected with the remaining cognate G protein subunits (GRK2 too for Gαq-CFP with Gβ1-YFP); whole-cell patch, pipette with 0.1 mM GTP; 10 μM Oxo-M applied; room temperature
[3] = target: hM3R-EYFP-Cerulean (human) (UniProt P20309)
[4] = target: T1, mouse M1 muscarinic receptor (mM1R) (Mus musculus, UniProt P12657); test: receptor FRET and RFP-PH translocation in HEK293T cells; format: cell-based
T1 construct: gene Chrm1; mM1R-YFP-CFP; wild-type mM1R
T1 sequence (P12657 1-460): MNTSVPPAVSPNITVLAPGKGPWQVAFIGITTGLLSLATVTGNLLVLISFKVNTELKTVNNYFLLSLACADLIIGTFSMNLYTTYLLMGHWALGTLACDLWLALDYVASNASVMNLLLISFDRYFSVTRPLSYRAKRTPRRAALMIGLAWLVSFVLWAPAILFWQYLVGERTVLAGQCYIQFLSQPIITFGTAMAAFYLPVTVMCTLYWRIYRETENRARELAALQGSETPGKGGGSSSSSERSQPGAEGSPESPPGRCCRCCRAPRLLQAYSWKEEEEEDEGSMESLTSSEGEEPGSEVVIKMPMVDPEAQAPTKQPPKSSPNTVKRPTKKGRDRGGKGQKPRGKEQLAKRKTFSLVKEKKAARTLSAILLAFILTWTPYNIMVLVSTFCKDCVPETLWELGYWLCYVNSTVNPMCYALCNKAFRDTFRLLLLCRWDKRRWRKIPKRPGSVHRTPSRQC

[5] = target: T2, human M3 muscarinic receptor (hM3R) (Homo sapiens, UniProt P20309, DEL271-484); test: intramolecular receptor FRET in HEK293T cells, concentration-response; format: cell-based
T2 construct: gene CHRM3; hM3R-YFP-CFP (EYFP replaces segment between Ala270 and Lys485 in ICL3; Cerulean at C-terminus)

Chain of heterotrimeric Gq protein (P50148 whole entry, looked up, one chain of several): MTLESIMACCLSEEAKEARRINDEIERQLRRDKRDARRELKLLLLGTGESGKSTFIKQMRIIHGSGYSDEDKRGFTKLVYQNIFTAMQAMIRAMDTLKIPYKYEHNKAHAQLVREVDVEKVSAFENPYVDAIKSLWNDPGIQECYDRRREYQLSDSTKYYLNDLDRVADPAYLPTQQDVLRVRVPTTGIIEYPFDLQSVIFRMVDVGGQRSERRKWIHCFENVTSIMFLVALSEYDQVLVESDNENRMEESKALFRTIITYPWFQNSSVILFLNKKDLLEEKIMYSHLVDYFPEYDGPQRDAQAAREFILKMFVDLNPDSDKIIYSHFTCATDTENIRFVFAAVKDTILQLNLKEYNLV

- deactivation time constant τ of FRETr after Oxo-M washout [1]: 0.53 s
- time constant τ of the FRETr increase on Oxo-M [2]: 0.23 s
Molecule: Gβγ subunits (bovine Gβ1-EYFP with Gγ2) (from UniProt P62871 1-340; P59768 1-71) (complex; other documents disagree on this pair)

- intramolecular FRETr of hM3R-YFP-CFP, time constant τ of step 1 on Oxo-M, intact HEK293T cells [3]: 0.22 s
Molecule: heterotrimeric Gq protein (from UniProt P50148 1-359) (complex)

Molecule: C[N+](C)(C)CC#CCN1CCCC1=O [Oxo-M, oxotremorine-M]
- receptor FRET and RFP-PH translocation in HEK293T cells [4]: wild-type mM1R or hM3R plasmid showed a strong translocation of RFP-PH from the plasma membrane to cytosol by Oxo-M
- EC50 [5]: 112 nM
